For assay [1], the target named is T1, FGFR3 (wild type) on cells (human, UniProt P22607 23-806).
T1 construct: also called FDCP-FR3; FDCP-FGFR3
Put plainly: FACS. In general terms: In flow cytometry, cells or beads pass a laser one at a time.

The target in assay [2] is T2, FR3exFc (human).
T2 construct: also called FGFR3/Fc; FR3/Fc
Description: BIACORE. The method, then: (§1) The affinity measurements were performed by BIACORE® analysis according to the standard procedure recommended by the supplier (Pharmacia). The anti-Fc antibody was coupled via the EDC/NHS chemistry to the chip and subsequently FGFR3 was captured. The Fabs of the invention were then bound to this surface.
On the technique in general: In SPR one partner is held on a chip, and binding of the other changes the refractive index at the surface.

The target of assay [3] is T2, FR3exFc. Description: BIACORE, FGFR3 captured on an anti-Fc chip. How it is done:
as §1

Assay [4] has as its target T1, FGFR3 (wild type) on cells. Description: cell-based or functional assay.
Assay [5] deals with T2, FR3exFc. Description: BIAcore, Fab-dHLX-MH miniantibody.
Assay [6] has as its target T1, FGFR3 (wild type) on cells. Description: indirect FACS-Scatchard.
Assay [7] has as its target T2, FR3exFc. Put plainly: BIACORE, FGFR3 captured on an anti-Fc chip. How it is done:
as §1
This is another data set of the same source.

The target in assay [8] is T2, FR3exFc. Description: BIAcore; number in parentheses taken as the monomeric Fab. How it is done: as §1
Assay [9] deals with T1, FGFR3 (wild type) on cells. Put plainly: cell-based or functional assay. The source holds these as a separate data set.

Substitutions are numbered along the chain they refer to.

T2 sequence (chain, as listed by the source limits assumed): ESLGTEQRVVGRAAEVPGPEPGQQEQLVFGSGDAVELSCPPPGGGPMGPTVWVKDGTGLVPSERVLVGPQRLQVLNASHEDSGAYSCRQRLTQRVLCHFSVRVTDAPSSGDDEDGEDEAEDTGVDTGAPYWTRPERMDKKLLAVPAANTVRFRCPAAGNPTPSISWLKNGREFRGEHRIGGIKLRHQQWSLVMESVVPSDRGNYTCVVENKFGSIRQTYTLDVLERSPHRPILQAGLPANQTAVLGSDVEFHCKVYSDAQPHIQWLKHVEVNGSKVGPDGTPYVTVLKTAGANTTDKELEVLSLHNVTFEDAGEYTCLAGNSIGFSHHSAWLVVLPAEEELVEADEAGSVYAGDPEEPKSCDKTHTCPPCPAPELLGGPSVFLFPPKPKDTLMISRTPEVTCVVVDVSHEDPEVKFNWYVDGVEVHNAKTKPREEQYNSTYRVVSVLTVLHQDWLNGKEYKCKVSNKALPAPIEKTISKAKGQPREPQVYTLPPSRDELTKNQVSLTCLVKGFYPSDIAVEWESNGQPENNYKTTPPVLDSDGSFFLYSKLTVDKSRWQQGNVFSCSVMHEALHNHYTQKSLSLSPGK
T1 sequence (P22607 23-806 limits assumed): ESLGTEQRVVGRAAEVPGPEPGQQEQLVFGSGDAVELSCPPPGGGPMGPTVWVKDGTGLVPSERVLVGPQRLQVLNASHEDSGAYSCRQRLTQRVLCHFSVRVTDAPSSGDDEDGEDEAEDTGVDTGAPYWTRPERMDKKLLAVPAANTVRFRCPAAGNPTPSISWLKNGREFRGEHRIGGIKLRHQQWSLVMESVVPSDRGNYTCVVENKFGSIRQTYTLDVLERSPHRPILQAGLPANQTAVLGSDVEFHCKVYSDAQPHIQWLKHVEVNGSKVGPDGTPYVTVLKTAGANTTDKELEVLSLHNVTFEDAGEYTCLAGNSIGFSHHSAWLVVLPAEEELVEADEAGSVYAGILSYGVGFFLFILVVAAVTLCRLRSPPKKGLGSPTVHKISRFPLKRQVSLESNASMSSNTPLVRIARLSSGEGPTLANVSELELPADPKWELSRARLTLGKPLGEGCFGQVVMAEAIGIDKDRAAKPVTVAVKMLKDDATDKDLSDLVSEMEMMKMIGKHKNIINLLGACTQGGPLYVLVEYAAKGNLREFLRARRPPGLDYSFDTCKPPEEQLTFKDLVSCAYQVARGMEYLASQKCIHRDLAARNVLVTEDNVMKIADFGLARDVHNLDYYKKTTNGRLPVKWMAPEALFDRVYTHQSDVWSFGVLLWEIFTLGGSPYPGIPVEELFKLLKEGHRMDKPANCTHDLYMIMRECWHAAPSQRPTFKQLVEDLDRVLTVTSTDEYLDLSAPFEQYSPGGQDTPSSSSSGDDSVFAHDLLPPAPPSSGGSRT

B1: MSPRO59 (Fab, V domains shown)
VH: QVQLQQSGPGLVKPSQTLSLTCAISGDSVSSNSAAWNWIRQSPGRGLEWLGRTYYRSKWYNDYAVSVKSRITINPDTSKNQFSLQLNSVTPEDTAVYYCARSYYPDFDYWGQGTLVTVSS
VL: DIELTQPPSVSVAPGQTARISCSGDALGDKYASWYQQKPGQAPVLVIYDDSDRPSGIPERFSGSNSGNTATLTISGTQAEDEADYYCQSYDGPDLWVFGGGTKLTVLG
notes: HuCAL Fab, framework VH6_L3
Broadly, the Kd is a measure of binding affinity in units of concentration. As usually defined, the koff is the rate constant with which the complex falls apart. Turning to B1, the dissociation constant (Kd) was less than 1 nM in assay [1] and 1.5 nM in assay [3]. This molecule displayed a koff in [2] of 0.00071 s⁻¹. Further, in assay [4], the “IC50 FR3 (FGF9), FDCP-FGFR3 proliferation assay” value (“IC50 FR3 (FGF9)” below) is 19 nM.

B2: MS-Pro-24-dHLX-MH (Fab, V domains shown)
VH: QVQLVQSGAEVKKPGSSVKVSCKASGGTFSSYAISWVRQAPGQGLEWMGGIIPIFGTANYAQKFQGRVTITADESTSTAYMELSSLRSEDTAVYYCARVNHWTYTFDYWGQGTLVTVSS
VL: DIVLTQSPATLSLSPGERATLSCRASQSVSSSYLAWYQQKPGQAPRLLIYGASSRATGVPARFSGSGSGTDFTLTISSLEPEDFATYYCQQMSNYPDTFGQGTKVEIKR
notes: Fab mini-antibody format Fab-dHLX-MH, a dimer of the Fab monomer; also called MSPRO24 Fab-dHLX
With B2, the Kd in [5] came out at 2 nM.

B3: MSPRO12 (Fab, V domains shown)
VH: QVQLKESGPALVKPTQTLTLTCTFSGFSLSTSGVGVGWIRQPPGKALEWLALIDWDDDKYYSTSLKTRLTISKDTSKNQVVLTMTNMDPVDTATYYCARYHSWYEMGYYGSTVGYMFDYWGQGTLVTVSS
VL: DIELTQPPSVSVAPGQTARISCSGDALGDKYASWYQQKPGQAPVLVIYDDSDRPSGIPERFSGSNSGNTATLTISGTQAEDEADYYCQSYDFDFAVFGGGTKLTVLG
notes: HuCAL Fab, framework VH2_L3
B3: the equilibrium dissociation constant (Kd) was determined as 6.5 nM in [1]; 6.5 nM in [6]; 14 nM in [7]; 14 nM in assay [8]; 14 nM in assay [3]. Further, the koff in [2] worked out at 0.0023 s⁻¹. Besides, in [9], the “IC50, FDCP-FGFR3 proliferation assay with FGF9, monomeric Fab (in parentheses)” value was determined as 58 nM. Further, the “IC50 FR3 (FGF9)” value in [4] was 58 nM.

B4: MS-Pro-28-dHLX-MH (Fab, V domains shown)
VH: QVQLVQSGAEVKKPGSSVKVSCKASGGTFSSYAISWVRQAPGQGLEWMGGIIPIFGTANYAQKFQGRVTITADESTSTAYMELSSLRSEDTAVYYCARGGGWVSHGYYYLFDLWGQGTLVTVSS
VL: DIQMTQSPSSLSASVGDRVTITCRASQGISSYLAWYQQKPGKAPKLLIYAASSLQSGVPSRFSGSGSGTDFTLTISSLQPEDFAVYYCFQYGSIPPTFGQGTKVEIKR
notes: Fab mini-antibody format Fab-dHLX-MH, a dimer of the Fab monomer; also called MSPRO28 Fab-dHLX
B4 registered a dissociation constant (Kd) in [5] of 1.6 nM.

B5: MS-Pro-11-dHLX-MH (Fab, V domains shown)
VH: QVQLVQSGAEVKKPGASVKVSCKASGYTFTSYYMHWVRQAPGQGLEWMGWINPNSGGTNYAQKFQGRVTMTRDTSISTAYMELSSLRSEDTAVYYCARYYGSSLYHYVFGGFIDYWGQGTLVTVSS
VL: DIALTQPASVSGSPGQSITISCTGTSSDVGGYNYVSWYQQHPGKAPKLMIYDVSNRPSGVSNRFSGSKSGNTASLTISGLQAEDEADYYCQSHHFYEVFGGGTKLTVLG
notes: Fab mini-antibody format Fab-dHLX-MH, a dimer of the Fab monomer; also called MSPRO11 Fab-dHLX
On to B5, for which the Kd in [5] is 0.7 nM.

B6: MSPRO55 (Fab, V domains shown)
VH: QVQLVQSGAEVKKPGASVKVSCKASGYTFTSYYMHWVRQAPGQGLEWMGWINPNSGGTNYAQKFQGRVTMTRDTSISTAYMELSSLRSEDTAVYYCARSMNSTMYWYLRRVLFDHWGQGTLVTVSS
VL: DIALTQPASVSGSPGQSITISCTGTSSDVGGYNYVSWYQQHPGKAPKLMIYDVSNRPSGVSNRFSGSKSGNTASLTISGLQAEDEADYYCQSYDMYNYIVFGGGTKLTVLG
On to B6, for which the koff in assay [2] came to 0.00074 s⁻¹. The Kd in assay [3] worked out at 2.9 nM. For the same molecule, in assay [4], the “IC50 FR3 (FGF9)” value was 34 nM.

B7: MS-Pro-26-dHLX-MH (Fab, V domains shown)
VH: QVQLVQSGAEVKKPGASVKVSCKASGYTFTSYYMHWVRQAPGQGLEWMGWINPNSGGTNYAQKFQGRVTMTRDTSISTAYMELSSLRSEDTAVYYCARGYWYAYFTYINYGYFDNWGQGTLVTVSS
VL: B6 VL with M95N, Y96N, N97S, Y98D, I99V
notes: Fab mini-antibody format Fab-dHLX-MH, a dimer of the Fab monomer; also called MSPRO26 dimeric dHLX format; Fab-dHLX
B7: the Kd in [5] is 2 nM. Further, the “IC50, FDCP-FGFR3 proliferation assay with FGF9, dimeric dHLX format” value in assay [9] was found to be 8 nM.

Values taken from patent US20090202547A1 (FIBRON, published 2009).
